Measured values taken from the Human Domainome abundance scans (Beltran et al. 2025).
± gives the uncertainty stated by the source.

B1: COUP transcription factor 1, residues 83 to 159; numbered along this chain, P10589 (parent)
chain: HIECVVCGDKSSGKHYGQFTCEGCKSFFKRSVRRNLTYTCRANRNCPIDQHHRNQCQYCRLKKCLKVGMRREAVQRG

Variants of: B1
Experiment: abundance fitness (aPCA) (normalised: wild type 0, dead -1); higher = more abundant; growth selection in yeast, the domain comes from the species named
Conditions: Homo sapiens

| Variant | abundance fitness |
| --- | --- |
| HIECVVCGDKSSGKHYGQFTCEGCKSFFKRSVRRNLTYTCRANRNCPIDQHHVNQCQYCRLKKCLKVGMRREAVQRG | -0.069 ± 0.06 |
| HIECVVCGDKSSGKHYGQFTCEGCKSFFKRSVRRNLTYTCRANRNCPIDQHHFNQCQYCRLKKCLKVGMRREAVQRG | -0.495 ± 0.28 |
| HIECVVCGDKSSGKHYSQFTCEGCKSFFKRSVRRNLTYTCRANRNCPIDQHHRNQCQYCRLKKCLKVGMRREAVQRG | -0.191 ± 0.067 |
| HIECVVCGDKSSGKHYQQFTCEGCKSFFKRSVRRNLTYTCRANRNCPIDQHHRNQCQYCRLKKCLKVGMRREAVQRG | 0.044 ± 0.091 |
| HIECVVCGDKSSGKHYGQFTCEGCKSFFKRSVRRNLTYTCRANRNCPIDQHHRNQCQYCRLKKCLKVGMRREAVQLG | 0.024 ± 0.045 |
| HIECVVCGDKSSGKHYGQFTCEGCKSFFKRSVRRNLTYTCRANRACPIDQHHRNQCQYCRLKKCLKVGMRREAVQRG | -0.076 ± 0.063 |
| HIECVVCGDKSSGKHYGQFTCEGCKSFFKRSVRRNLTYTCRANRECPIDQHHRNQCQYCRLKKCLKVGMRREAVQRG | -0.025 ± 0.072 |
| HIECVVCGDKSSGKHYGQFTCEGCKSFFKRSVTRNLTYTCRANRNCPIDQHHRNQCQYCRLKKCLKVGMRREAVQRG | 0.096 ± 0.068 |
| HIECVVCGDKSSGKHYGQFTCEGCKSFFKRSVRQNLTYTCRANRNCPIDQHHRNQCQYCRLKKCLKVGMRREAVQRG | 0.018 ± 0.11 |
| HIECVVCGDKSSGKHYGQFTCEGCKSFFKRSVRRNLTYTCRANRNCPIDQHHRNQCQYCRLKGCLKVGMRREAVQRG | -0.526 ± 0.05 |
| HIECVVCGDKSSGKHYGQFTCEGCKSFFKRSVRRNLTYTCRANRNCPIDQHHRNQCQYCRLKKCLKHGMRREAVQRG | -0.157 ± 0.088 |
| HIECVVCGDKSSGKHYGQFTCEGCKSFFKRSVRRNLTYTCRANRNCPIDQHHRNQCQYCRLKKCLKMGMRREAVQRG | 0.099 ± 0.045 |
| HIECVVCGDKSSGKHYGQFTCEGCKSFFKRSVRRNLTYTCRANRNCPIDQHHRNQCQYCRLKKCLKAGMRREAVQRG | -0.099 ± 0.043 |
| HIECVVCGDKSSGKHYGQFTCEGCKSFFKRSVRRNLTYTGRANRNCPIDQHHRNQCQYCRLKKCLKVGMRREAVQRG | -0.731 ± 0.064 |
| HIECVVCGDKSCGKHYGQFTCEGCKSFFKRSVRRNLTYTCRANRNCPIDQHHRNQCQYCRLKKCLKVGMRREAVQRG | -0.578 ± 0.14 |
| HIECVVCGDVSSGKHYGQFTCEGCKSFFKRSVRRNLTYTCRANRNCPIDQHHRNQCQYCRLKKCLKVGMRREAVQRG | -0.235 ± 0.048 |
| HIECVVCGHKSSGKHYGQFTCEGCKSFFKRSVRRNLTYTCRANRNCPIDQHHRNQCQYCRLKKCLKVGMRREAVQRG | -0.636 ± 0.27 |
| HIECVVCGDKSSGKHYGQSTCEGCKSFFKRSVRRNLTYTCRANRNCPIDQHHRNQCQYCRLKKCLKVGMRREAVQRG | 0.032 ± 0.065 |

| Variant | abundance fitness |
| --- | --- |
| HIECVVCGDKSSGKHYGQITCEGCKSFFKRSVRRNLTYTCRANRNCPIDQHHRNQCQYCRLKKCLKVGMRREAVQRG | -0.279 ± 0.27 |
| HIECVVCGDKSSGKHYGQFTCEGCKSFFKRSVRRNLTYTCRANRNCPIDQHHRNQCQYCRLKKCLKVWMRREAVQRG | -0.666 ± 0.085 |
| HIECVVCGDKSSGKHYGQFTCEGCKPFFKRSVRRNLTYTCRANRNCPIDQHHRNQCQYCRLKKCLKVGMRREAVQRG | -0.812 ± 0.34 |
| HIECVVCGDKSSGKHYGQFTCEGCKCFFKRSVRRNLTYTCRANRNCPIDQHHRNQCQYCRLKKCLKVGMRREAVQRG | -0.127 ± 0.12 |
| HIECVVCGDKSSGKHYGQFTCEGCKTFFKRSVRRNLTYTCRANRNCPIDQHHRNQCQYCRLKKCLKVGMRREAVQRG | 0.139 ± 0.1 |
| HIECVVCGDKSSGKHYGQFTCEGCKSFFKRSVRRNLTYTCRANRNCPIDQHHRNQCQYCRLKKCLKVGMRREAVPRG | 0.034 ± 0.058 |
| HIECVVCGDKSSGKHYGQFTCEGCKSFFKRSVRRNLTYTCRANRNCPIDQHHRNQCQYCRLKKCLKVGMRREAVMRG | -0.114 ± 0.052 |
| HIECVVCGDKSSGKHYGQFTCEGCKSFFKRSVRRNLTYTCRANRNCPIDQHHRNQCQWCRLKKCLKVGMRREAVQRG | -0.03 ± 0.04 |
| HIECVVCGDKSSGKHYGQFTCEGCKSFFKRSVRRELTYTCRANRNCPIDQHHRNQCQYCRLKKCLKVGMRREAVQRG | 0.161 ± 0.093 |
| HIECVVCGDKSSGKHYGQFTCEGCKSFFKRSVRRGLTYTCRANRNCPIDQHHRNQCQYCRLKKCLKVGMRREAVQRG | -0.003 ± 0.062 |
| HIECVVCGDKSSGKHYGQFTCEGCKSFFKRSVRRNLTYTCRANCNCPIDQHHRNQCQYCRLKKCLKVGMRREAVQRG | -0.153 ± 0.073 |
| HIECVVCGDKSSGKHYGQFTCEGCKSFFKRSVRRNLTYTCRANKNCPIDQHHRNQCQYCRLKKCLKVGMRREAVQRG | -0.071 ± 0.064 |
| HIECVVCGDKSSGDHYGQFTCEGCKSFFKRSVRRNLTYTCRANRNCPIDQHHRNQCQYCRLKKCLKVGMRREAVQRG | 0.228 ± 0.31 |
| HIECVVCGDKSSGKHYGQFTCEGCKSFFKRWVRRNLTYTCRANRNCPIDQHHRNQCQYCRLKKCLKVGMRREAVQRG | -0.185 ± 0.074 |
| HIECVVCGDKSSGKHYGQFTCEGCKSFFKRLVRRNLTYTCRANRNCPIDQHHRNQCQYCRLKKCLKVGMRREAVQRG | -0.571 ± 0.11 |
| HIECVVEGDKSSGKHYGQFTCEGCKSFFKRSVRRNLTYTCRANRNCPIDQHHRNQCQYCRLKKCLKVGMRREAVQRG | -0.659 ± 0.1 |
| HIDCVVCGDKSSGKHYGQFTCEGCKSFFKRSVRRNLTYTCRANRNCPIDQHHRNQCQYCRLKKCLKVGMRREAVQRG | 0.006 ± 0.063 |
| HIECVVCGDKSSGKHYGQFTCEGCKSFFKRSVRRNLTYTCRANRNCPIDQHHRNQCQYCRLKKCLKVGLRREAVQRG | -0.027 ± 0.035 |
